{
  "source": "paper PMC10574248",
  "data": [
    {"system": "RBP7910 (Trypanosoma brucei)", "assay": "MST", "conditions": "RBB50: 20 mM HEPES pH 7.6, 150 mM KCl, 5 mM MgCl2, 100 ug/mL BSA, 10% glycerol, 50 nM oligo, room temperature 30-60 min, errors are 68% confidence", "units": {"Kd": "µM"}, "values": [
      {"sequence": "GGTGGGTTATCGCGCGCGCGCGATCAACTGGG (double strand) [d(GC)6 ds]", "Kd": 0.444},
      {"sequence": "GGTGGGTTATCGCGCGCGCGCGATCAACTGGG [d(GC)6 ss]", "Kd": 0.022},
      {"sequence": "GGUGGGUUAUAUUCAUUCAUUCAUCAACUGGG / CCCAGUUGAUGAAUGAAUGAAUAUAACCCACC [r(AUUC)3 ds]", "Kd": 1.23},
      {"sequence": "GGUGGGUUAUAUUCAUUCAUUCAUCAACUGGG [r(AUUC)3 ss]", "Kd": 0.272},
      {"sequence": "GGUGGGUUAUAUUUAUUUAUUUAUUUAUCAACUGGG / CCCAGUUGAUAAAUAAAUAAAUAAAUAUAACCCACC [r(AUUU)4 ds]", "Kd": 1.88},
      {"sequence": "GGUGGGUUAUAUUUAUUUAUUUAUUUAUCAACUGGG [r(AUUU)4 ss]", "Kd": 0.18},
      {"sequence": "GGUGGGUUAUCGCGCGCGCGCGAUCAACUGGG / CCCAGUUGAUCGCGCGCGCGCGAUAACCCACC [r(GC)6 ds]", "Kd": 3.22},
      {"sequence": "GGUGGGUUAUCGCGCGCGCGCGAUCAACUGGG [r(GC)6 ss]", "Kd": 2.03},
      {"sequence": "GGUGGGUUAUUAUAUAUAUAUAAUCAACUGGG / CCCAGUUGAUUAUAUAUAUAUAAUAACCCACC [r(UA)6 ds]", "Kd": 1.34},
      {"sequence": "GGUGGGUUAUUAUAUAUAUAUAAUCAACUGGG [r(UA)6 ss]", "Kd": 0.88},
      {"sequence": "GGUGGGUUAUUUUUUUUUUUUUAUCAACUGGG / CCCAGUUGAUAAAAAAAAAAAAAUAACCCACC [r(UUUU)3 ds]", "Kd": 1.71},
      {"sequence": "GGUGGGUUAUUUUUUUUUUUUUAUCAACUGGG [r(UUUU)3 ss]", "Kd": 0.147}
    ]}
  ]
}
